{"source": "patent US20050181450A1", "about": "“Novel inositol 1,4,5-trisphosphate (IP3) receptor-binding protein and an IP3 indicator” (priority 2002, published 2005)", "molecules": {"B1": {"name": "IRBIT: novel IP3 receptor-binding protein of 530 amino acids, SEQ ID NO: 1 (protein, listed as Mus musculus)", "chain": "MSMPDAMPLPGVGEELKQAKEIEDAEKYSFMATVTKAPKKQIQFADDMQEFTKFPTKTGRRSLSRSISQSSTDSYSSAASYTDSSDDEVSPREKQQTNSKGSSNFCVKNIKQAEFGRREIEIAEQDMSALISLRKRAQGEKPLAGAKIVGCTHITAQTAVLIETLCALGAQCRWSACNIYSTQNEVAAALAEAGVAVFAWKGESEDDFWWCIDRCVNMDGWQANMILDDGGDLTHWVYKKYPNVFKKIRGIVEESVTGVHRLYQLSKAGKLCVPAMNVNDSVTKQKFDNLYCCRESILDGLKRTTDVMFGGKQVVVCGYGEVGKGCCAALKALGAIVYITEIDPICALQACMDGFRVVKLNEVIRQVDVVITCTGNKNVVTREHLDRMKNSCIVCNMGHSNTEIDVTSLRTPELTWERVRSQVDHVIWPDGKRVVLLAEGRLLNLSCSTVPTFVLSITATTQALALIELYNAPEGRYKQDVYLLPKKMDEYVASLHLPSFDAHLTELTDDQAKYLGLNKNGPFKPNYYRY"}}, "key": {"[1]": {"target": "T1, GST-EL (mouse IP3R1 amino acids 1-2217) (Mus musculus, UniProt P11881, N1264K)", "T1 construct": "construct a GST-IP3R1 (1-2217) vector (termed GST-EL); made in house; host or cells: Sf9 cells (baculovirus)", "T1 sequence (P11881 1-2217 N1264K)": "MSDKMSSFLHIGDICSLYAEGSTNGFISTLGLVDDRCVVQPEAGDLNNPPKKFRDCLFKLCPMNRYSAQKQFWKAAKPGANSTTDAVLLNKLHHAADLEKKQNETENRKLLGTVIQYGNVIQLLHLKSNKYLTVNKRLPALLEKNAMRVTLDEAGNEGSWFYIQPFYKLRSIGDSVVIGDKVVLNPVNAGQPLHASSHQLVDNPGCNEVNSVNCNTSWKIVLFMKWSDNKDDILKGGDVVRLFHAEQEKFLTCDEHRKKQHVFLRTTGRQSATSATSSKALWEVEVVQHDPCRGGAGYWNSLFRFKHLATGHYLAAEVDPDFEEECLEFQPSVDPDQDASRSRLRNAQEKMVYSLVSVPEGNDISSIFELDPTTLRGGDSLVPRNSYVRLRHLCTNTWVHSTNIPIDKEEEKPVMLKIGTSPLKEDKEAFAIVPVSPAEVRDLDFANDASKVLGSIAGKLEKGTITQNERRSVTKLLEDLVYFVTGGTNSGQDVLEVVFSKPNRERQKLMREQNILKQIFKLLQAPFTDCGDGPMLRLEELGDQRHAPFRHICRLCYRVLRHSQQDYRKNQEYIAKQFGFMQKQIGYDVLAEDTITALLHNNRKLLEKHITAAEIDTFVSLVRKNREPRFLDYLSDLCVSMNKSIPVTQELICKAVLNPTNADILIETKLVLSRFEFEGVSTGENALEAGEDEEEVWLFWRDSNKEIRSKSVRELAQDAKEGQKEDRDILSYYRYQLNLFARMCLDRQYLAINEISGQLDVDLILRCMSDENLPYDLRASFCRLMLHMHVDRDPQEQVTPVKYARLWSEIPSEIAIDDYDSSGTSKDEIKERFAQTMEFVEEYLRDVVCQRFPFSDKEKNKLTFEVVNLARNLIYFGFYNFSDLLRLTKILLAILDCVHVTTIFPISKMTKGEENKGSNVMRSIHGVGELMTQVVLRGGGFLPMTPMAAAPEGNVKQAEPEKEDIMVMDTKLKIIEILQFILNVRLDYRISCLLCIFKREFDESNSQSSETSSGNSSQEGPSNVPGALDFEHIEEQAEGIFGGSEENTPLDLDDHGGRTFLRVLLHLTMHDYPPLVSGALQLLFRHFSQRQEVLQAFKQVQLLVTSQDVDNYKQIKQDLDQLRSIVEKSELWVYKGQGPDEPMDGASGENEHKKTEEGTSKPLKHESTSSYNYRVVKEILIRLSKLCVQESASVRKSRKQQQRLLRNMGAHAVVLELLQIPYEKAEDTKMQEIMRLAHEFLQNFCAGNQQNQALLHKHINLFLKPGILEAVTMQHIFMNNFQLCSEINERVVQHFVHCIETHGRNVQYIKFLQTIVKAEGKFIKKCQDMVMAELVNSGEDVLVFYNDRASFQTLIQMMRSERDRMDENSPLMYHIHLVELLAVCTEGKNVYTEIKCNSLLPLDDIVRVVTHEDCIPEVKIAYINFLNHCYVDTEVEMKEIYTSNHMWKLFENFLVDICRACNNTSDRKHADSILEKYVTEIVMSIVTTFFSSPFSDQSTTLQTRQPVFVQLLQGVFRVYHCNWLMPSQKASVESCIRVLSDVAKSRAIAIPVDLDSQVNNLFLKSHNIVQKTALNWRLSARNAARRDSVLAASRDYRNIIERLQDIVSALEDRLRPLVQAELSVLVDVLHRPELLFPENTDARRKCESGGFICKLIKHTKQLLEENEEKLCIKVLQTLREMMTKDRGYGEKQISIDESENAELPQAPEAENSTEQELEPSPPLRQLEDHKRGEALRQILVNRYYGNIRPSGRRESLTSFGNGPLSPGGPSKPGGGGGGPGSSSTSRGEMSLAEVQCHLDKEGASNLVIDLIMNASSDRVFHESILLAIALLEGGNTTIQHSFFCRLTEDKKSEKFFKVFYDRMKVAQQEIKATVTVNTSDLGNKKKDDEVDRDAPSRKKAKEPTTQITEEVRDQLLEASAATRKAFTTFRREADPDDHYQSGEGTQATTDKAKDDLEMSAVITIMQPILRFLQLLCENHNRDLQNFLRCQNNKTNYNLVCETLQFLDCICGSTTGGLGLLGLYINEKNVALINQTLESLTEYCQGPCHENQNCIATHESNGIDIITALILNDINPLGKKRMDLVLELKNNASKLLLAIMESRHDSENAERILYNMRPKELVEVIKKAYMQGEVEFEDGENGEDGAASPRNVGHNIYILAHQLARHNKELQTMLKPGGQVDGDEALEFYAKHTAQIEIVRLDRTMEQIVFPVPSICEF", "test": "GST pulldown with GST-EL", "format": "binding", "method": "Mouse cerebellar cytosolic fraction was diluted 2-fold with 10 mM Hepes (pH 7.4), 200 mM NaCl, 2 mM EDTA, 1 mM 2-ME and 0.02% Triton X-100. The high salt extract was diluted 5-fold with 10 mM Hepes (pH 7.4), 2 mM EDTA, 1 mM 2-ME and 0.01% Triton X-100. The diluted fractions (the final NaCl concentration of both fractions was 100 mM) were incubated with 20 μg of GST-EL or GST for 2 hours at 4° C. After adding 10 μl of glutathione-Sepharose and another 2 hours of incubation, the resins were washed 5 times with a wash buffer (10 mM Hepes (pH 7.4), 100 mM NaCl, 2 mM EDTA, 1 mM 2-ME, and 0.01% Triton X-100), and bound proteins were eluted with 20 mM glutathione.\nThe eluted proteins were analyzed by Western blotting with anti-IRBIT antibody. For dephosphorylation, the diluted high salt extract was incubated in the presence of or the absence of Escherichia coli alkaline phosphatase (Toyobo) with 2 mM MgCl2 for 30 minutes at 37° C. 5 mM EDTA was added, and then the resultant was subjected to pulldown assay as described above.\nFor the determination of the IP3R1-interacting region of IRBIT, Cos-7 cells expressing GFP-tagged full-length IRBIT or its truncated mutants were lysed in a lysis buffer (10 mM Hepes (pH7.4), 100 mM NaCl, 2 mM EDTA, 1 mM 2-ME, 0.5% Nonidet P-40, and protease inhibitor) for 30 minutes at 4° C., followed by centrifugation (100,000×g, 30 minutes). The supernatants were subjected to pulldown assay with GST-EL or GST as described above, and bound proteins were subjected to immunoblot analysis with anti-GFP antibody (Medical & Biological Laboratories)."}, "[2]": {"test": "S-adenosylhomocysteine hydrolase activity in the hydrolytic direction", "format": "biochemical", "settings": "recombinant protein expressed in Escherichia coli; hydrolysis direction", "method": "The S-adenosylhomocysteine hydrolase activity in the hydrolytic direction of recombinant IRBIT-His (open circle), GST-IRBIT (triangle), GST (square), and S-adenosylhomocysteine hydrolase (closed circle) were measured according to the known method (43). Results are shown as the mean±standard deviation from three independent experimental results.\nTo assay S-adenosylhomocysteine hydrolase activity in the hydrolytic direction, the color developed by the reaction between the product (Homocysteine) and 5,5′-dithiobis (2-nitrobenzoic acid) (Sigma) was measured spectroscopically using the purified IRBIT-His (3.0 μg), GST-IRBIT (4.3 μg), GST (1.3 μg) and rabbit S-adenosylhomocysteine hydrolase (Sigma) (2.4 μg), according to the known method (43). Absorbance at 412 nm was measured 0, 5, 20 and 60 minutes later using a DU 640 spectrophotometer (Beckman). Results are shown as the mean±standard deviation from three independent experiments (FIG. 2)."}, "[3]": {"target": "T2, type II phosphatidylinositol phosphate kinase β (Homo sapiens, UniProt P78356)", "T2 construct": "expressed in transfected cells; host or cells: Cos-7", "T2 sequence (P78356 1-416)": "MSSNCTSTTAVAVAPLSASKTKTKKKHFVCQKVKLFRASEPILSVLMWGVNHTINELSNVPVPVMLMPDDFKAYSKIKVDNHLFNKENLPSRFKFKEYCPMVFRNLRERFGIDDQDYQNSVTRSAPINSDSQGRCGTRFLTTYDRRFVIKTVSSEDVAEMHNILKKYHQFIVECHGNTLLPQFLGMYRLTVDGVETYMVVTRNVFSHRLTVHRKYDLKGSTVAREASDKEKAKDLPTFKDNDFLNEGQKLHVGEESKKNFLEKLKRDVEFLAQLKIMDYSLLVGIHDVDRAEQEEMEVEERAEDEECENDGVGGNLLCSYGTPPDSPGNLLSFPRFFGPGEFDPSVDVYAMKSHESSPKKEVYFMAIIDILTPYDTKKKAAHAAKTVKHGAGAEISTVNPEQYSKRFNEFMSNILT", "test": "Co-immunoprecipitation in Cos-7 cells with Myc-PIPKII β", "format": "binding", "settings": "overexpressing Cos-7 cells", "method": "(§1) (A and B) IRBIT was transfected into Cos-7 cells with Myc-tagged type II phosphatidylinositol phosphate kinase α, β or γ (PIPKII α, β or γ). After two days, cells were lysed in lysis buffer, followed by centrifugation (100,000×g, 30 min). The supernatants were incubated with 3 μg of anti-IRBIT antibody, rabbit IgG, mouse anti-Myc antibody, or mouse IgG for 1 h at 4° C. After adding 5 μl of Protein G beads and another 1-h incubation, the beads were washed five times with lysis buffer and analyzed by Western blotting with anti-IRBIT antibody or HRP conjugated anti-Myc antibody. Immunoprecipitation of Myc-PIPKII α, β or γ with anti-Myc antibody co-precipitated IRBIT (A). In the reciprocal experiments, immunoprecipitation of IRBIT with anti-IRBIT antibody precipitated Myc-PIPKII α, β or γ.\nas §1, with “IRBIT” for “(A and B) IRBIT”, “antibody.” for “antibody. Immunoprecipitation of Myc-PIPKII α, β or γ with anti-Myc antibody co-precipitated IRBIT (A). In the reciprocal experiments, immunoprecipitation of IRBIT with anti-IRBIT antibody precipitated Myc-PIPKII α, β or γ.”"}, "[4]": {"target": "T3, type II phosphatidylinositol phosphate kinase α (Homo sapiens, UniProt P48426)", "T3 construct": "expressed in transfected cells; host or cells: Cos-7", "T3 sequence (P48426 1-406)": "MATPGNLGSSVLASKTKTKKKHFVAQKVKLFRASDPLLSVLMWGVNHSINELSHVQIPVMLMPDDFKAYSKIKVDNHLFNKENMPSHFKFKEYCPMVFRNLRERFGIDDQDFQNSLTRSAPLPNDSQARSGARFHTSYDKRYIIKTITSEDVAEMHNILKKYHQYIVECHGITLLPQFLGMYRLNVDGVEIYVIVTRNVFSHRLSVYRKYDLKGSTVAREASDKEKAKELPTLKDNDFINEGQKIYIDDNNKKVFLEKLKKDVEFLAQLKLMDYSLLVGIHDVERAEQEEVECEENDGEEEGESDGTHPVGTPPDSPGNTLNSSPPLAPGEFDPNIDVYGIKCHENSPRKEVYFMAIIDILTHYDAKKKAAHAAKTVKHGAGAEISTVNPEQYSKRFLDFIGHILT", "test": "Co-immunoprecipitation in Cos-7 cells with Myc-PIPKII α", "format": "binding", "settings": "overexpressing Cos-7 cells", "method": "as §1\nas §1, with “IRBIT” for “(A and B) IRBIT”, “antibody.” for “antibody. Immunoprecipitation of Myc-PIPKII α, β or γ with anti-Myc antibody co-precipitated IRBIT (A). In the reciprocal experiments, immunoprecipitation of IRBIT with anti-IRBIT antibody precipitated Myc-PIPKII α, β or γ.”"}}}
{"molecule": "B1", "values": [{"measurement": "interaction with GST-EL", "setting": "[1]; IRBIT in high salt extract of mouse cerebellar crude microsome", "result": "interacted with GST-EL"}, {"measurement": "interaction with GST-EL", "setting": "[1]; IRBIT in mouse cerebellar cytosolic fraction", "result": "did not interact with GST-EL"}, {"measurement": "interaction with GST-EL", "setting": "[1]; high salt extract treated with alkaline phosphatase", "result": "did not interact with GST-EL"}, {"measurement": "S-adenosylhomocysteine hydrolase activity", "setting": "[2]", "result": "no S-adenosylhomocysteine hydrolase activity"}, {"measurement": "interaction with PIPKII β", "setting": "[3]", "result": "interacted"}, {"measurement": "interaction with PIPKII α", "setting": "[4]", "result": "interacted"}]}
